Results: US20100285022A1 (TRELLIS RSV, published 2010)

T1: RSV G protein of strain A (Ga protein) (respiratory syncytial virus, strain A …, UniProt P03423 66-298)
T1 construct: also called RSV-Ga; RSV-GA2 protein
T1 sequence (looked up): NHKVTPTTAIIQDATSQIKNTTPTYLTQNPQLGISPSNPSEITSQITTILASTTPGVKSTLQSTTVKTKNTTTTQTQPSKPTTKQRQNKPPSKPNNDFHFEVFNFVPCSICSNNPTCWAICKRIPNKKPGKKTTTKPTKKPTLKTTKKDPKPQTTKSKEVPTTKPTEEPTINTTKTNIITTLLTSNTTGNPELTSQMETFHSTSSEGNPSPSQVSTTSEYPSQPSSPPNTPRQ

T2: Ga derived 12-mer peptide SKPNNDFHFEVF (SEQ ID NO:8) (respiratory syncytial virus, strain A …)
T2 construct: Peptide on an array of overlapping 12-mers
T2 peptide: SKPNNDFHFEVF

B1: murine monoclonal antibody 131-2G (antibody, V domains shown)
VH: EVQLQQSGPELVKPGTSVKISCKASGYSFTGFTMNWVKQSHGKNLEWFGLINPFNGNTGYNQKFKGKATLTVDKSSSTAFMELLSLTSEDSAVYYCARSGKSYDYEAWFTYWGQGTLVTVSA
VL: DIVMTQTTLSLPVSLGNQASISCRSSQTIVHTNGNTYLEWYLQKPGQSPKLLIYKVSNRFSGVPDRFSGSGSGTDFILNISRVEAEDLGVYYCFQGSHVPFTFGSGTKLEIKR
notes: also called mAb 1312G
B2: human monoclonal antibody 1G8 (antibody, V domains shown)
VH: QLQLQESGPGLVKPSETLSLTCTVSGDSITSGQYYWAWIRQAPGKGLEWIGSIHYSGSTYQNPSLKSRLTISVDTSRDQISMKLSSVTVAESAVYYCAKQQLSLSPVENWFDPWGQGTLVTVSS
VL: EIVVTQSPVTLSVSPGESAALSCRASRSVGSRLAWYQQKPGQPPRLLIFAASTRATGIPARFSGSGSGTDFTLIISGLQSEDYAVYYCQQYKEWPLFTFGPGTTVDSK
B3: human monoclonal antibody 1D4 (antibody, V domains shown)
VH: QVQLLQSGAELKKPGASVKVSCQASIDTFSTYYIHWVRQAPGQGLEWLGVINPSGGSTTYAQKFQDRITLTTDTSTRTVYMDLSSLRSEDTAVYYCARVHKGRAEQWQLLHGHFDLWGRGSLVTVSS
VL: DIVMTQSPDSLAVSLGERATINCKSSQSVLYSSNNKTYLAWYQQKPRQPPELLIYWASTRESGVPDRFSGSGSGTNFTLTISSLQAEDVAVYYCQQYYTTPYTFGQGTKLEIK
B4: human monoclonal antibody 3G12 (antibody, V domains shown)
VH: QLQLQESGPGLVKPSETLSLTCTVSGGSISSSNYYWGWIRQPPGKGLEWIASIHDSGSIYYNPSLRSRVTISVDTSKNQFSLKLSSVTAADTAVYYCARHLVWFGELRNNWFDPWGQGTLVTVAS
VL: EIVMTQSPATLSVSPGERATLSCRASQSVNSNLAWYQHKPGQAPRLLIYGASTRATGIPARFSGSGSGTDFTLTISSLQSEDFAVYYCQQYNNWPLFGPGTKVDLK
B5: human monoclonal antibody 3D3 (antibody, V domains shown)
VH: EEQLVESGGGLVQPGRSLRLSCVGSGLRFEEHAMHWVRQAPGRGLEWVSGISWNSGSVGYADSVKGRFTTSRDNAKDILFLEMNTLRSEDTALYFCAIMVATTKNDFHYYKDVWGKGTTVTVSS
VL: QIVLTQSPATLSLSPGERATLSCKASQSVSNHLAWYQQKPGQAPRLLIYETSNRATGIPPRFSGSGSGTDFTLTISSLEPEDFAVYYCQQRNNWYTFGQGTKLEIK
B6: human monoclonal antibody 5D8 (antibody, V domains shown)
VH: QAQLVESGGGVVQPGRSLRLSCAASGFTFSYSGMHWVRQAPGRGLEWLAVISYDGNKMYYADSVKGRFTISRDNSKMTLYLQMNSLRREDTAVYYCAKDGLDYGGDLVYYGMDVWGNGTTVTVSS
VL: SYELTQPPSVSVSPGQTGRITCTGSEASGDALASRYAYWYQHKSGQAPVVLIYKDTERPSGISERFSGSSSGTTVTLIISGVLAEDEADYYCKTSVRNGTSWVFGTGTMLTVL

Legend:
[1] = biological target: T1, RSV G protein of strain A (Ga protein); assay: Biacore, ratio of on-rate to off-rate; Biacore, not the ELISA midpoint (4 nM)
[2] = biological target: T2, Ga derived 12-mer peptide SKPNNDFHFEVF …; assay: peptide array of overlapping 12-mer Ga peptides probed with 131-2G at 1 ug/ml, chemiluminescence
[3] = biological target: T1, RSV G protein of strain A (Ga protein); assay: Biacore, antibody on chip, recombinant Ga in flow
[4] = biological target: T3, G protein on live RSV virus coated on the plate (strain not stated) (respiratory syncytial virus); assay: ELISA on live RSV virus coated on the plate, anti-human Fc-HRP detection
T3 construct: whole, on cells; also called live virus; virus particles

[5] = biological target: T4, RSV G protein of strain B (Gb protein) (respiratory syncytial virus, strain B); assay: Biacore, antibody on chip, recombinant Gb in flow
T4 construct: also called RSV-Gb; G protein from strain B

Binder | Kd [3] [nM] | EC50 (read off the curve) [4] [ng/mL] | other results
B1 | – | – | Kd [1]: 7 nM; binding result [2]: binds
B2 | 0.024 | ~300 | –
B3 | 0.23 | – | Kd [5]: 0.052 nM
B4 | 0.579 | – | –
B5 | 0.0011 | ~100 | –
B6 | 4.39 | – | –
